Experimental findings from patent US20100150906A1 (AC IMMUNE S A, published 2010) are described below.

No end group written: not given here.

One test addresses T1, peptide 6 (also: biotinylated, site not given here).
T1 construct: also called 6 on the axis Peptide number; first peptide library
T1 peptide: HDSGYEVHH
In words: ELISA, biotinylated peptide on streptavidin plate, O.D. 405 nm [upper chart, Figure 1]. The text has this:
(§1) One library comprised a total of 33 biotinylated peptides covering the complete amino acid (aa) sequence of Aβ1-42 (produced by Mimotopes and purchased from ANAWA Trading SA), the second library contains biotinylated peptides using peptide 12 (aa12-20 of Aβ) from the first peptide library and substituting each aa in the sequence by an alanine (see table 8 below), and the third library contains biotinylated peptides 13, 14, or 15 (aa 13-21, 14-22 or 15-23 of Aβ) and substituting in each case the last amino acids to an alanine or to a glycine for aa 21 which is already an alanine (see table 9 below). A biotinylated complete Aβ1-42 peptide was used as positive control (Bachem). Epitope mapping was done according to the manufacturer's (Mimotopes) instructions. Briefly, Streptavidin coated plates (NUNC) were blocked with 0.1% BSA in PBS overnight at 4° C. After washing with PBS-0.05% Tween 20, plates were coated for 1 hour at RT with the different peptides from the library, diluted in 0.1% BSA, 0.1% Sodium Azide in PBS to a final concentration of 10 μM. […] Plates were washed again and incubated with alkaline phosphatase conjugated goat anti human IgG for 1 h at RT.
A general note: An ELISA detects its analyte on a solid surface through an enzyme-linked reagent.

A further test deals with T2, peptide 11 (also: biotinylated, site not given here).
T2 construct: also called 11 on the axis Peptide number; first peptide library
T2 peptide: EVHHQKLVF
The description is as above.
Excerpt: as §1

In a further test the target is T3, peptide 31 (also: biotinylated, site not given here).
T3 construct: also called 31 on the axis Peptide number; first peptide library
T3 peptide: IIGLMVGGV
The test is described as above.
Excerpt: as §1

The next test concerns the target T4, peptide 4 (also: biotinylated, site not given here).
T4 construct: also called 4 on the axis Peptide number; first peptide library
T4 peptide: FRHDSGYEV
The description is as above.
Excerpt: as §1

In the next test the target is T5, peptide 29 (also: biotinylated, site not given here).
T5 construct: also called 29 on the axis Peptide number; first peptide library
T5 peptide: GAIIGLMVG
Described as above.
Excerpt: as §1

In a further test the target is T6, peptide 24 (also: biotinylated, site not given here).
T6 construct: also called 24 on the axis Peptide number; first peptide library
T6 peptide: VGSNKGAII
The description is as above.
Excerpt: as §1

Another test addresses T7, peptide 21 (also: biotinylated, site not given here).
T7 construct: also called 21 on the axis Peptide number; first peptide library
T7 peptide: AEDVGSNKG
The description is as above.
Excerpt: as §1

The target in a further test is T8, peptide 17 (also: biotinylated, site not given here).
T8 construct: also called 17 on the axis Peptide number; first peptide library
T8 peptide: LVFFAEDVG
The test is described as above.
Excerpt: as §1

The target in test [1] is T9, amyloid beta 1-42 monomers (UniProt P05067 672-713).
T9 construct: domain: amyloid beta 1-42; also called Aβ1-42 monomers; amyloid monomers
In words: ELISA on coated amyloid (55 µg/ml); mC2 at 0.078 ug/ml. The procedure: (§2) In order to evaluate the specificity of mC2 to different stages of polymerized amyloid protein, monomeric, polymeric soluble and fibrillic amyloid, an ELISA coated with these different stages of polymeric beta-amyloid was performed (FIG. 9). Monomers were prepared according to a modified method published by (Klein, 2002), soluble polymeric amyloid beta according to (Barghorn et al., 2005), whereas fibers were performed by incubation of amyloid (Bachem, Switzerland) with a final concentration of 1 μg/μl in Tris/HCl pH 7.4 at 37° C. for 5 days followed by a centrifugation step (10,000 rpm for 5 minutes). Then amyloid polymers were coated on an ELISA plates with a final concentration of 55 μg/ml and binding affinity ELISA by using an anti-mouse IgG monoclonal antibody (Jackson) labelled with alkaline phosphate was performed.

A further test addresses T10, amyloid beta 1-42 fibers (UniProt P05067 672-713).
T10 construct: domain: amyloid beta 1-42; Many copies per fiber; also called Aβ1-42 fibers; fibrillar Aβ1-42
The description is as above. The procedure:
as §2

In test [2] the target is T11, soluble polymeric amyloid beta (oligomers) (UniProt P05067 672-713).
T11 construct: domain: amyloid beta 1-42; also called amyloid oligomers; Abeta oligomer
The test is described as above. The procedure: as §2

In test [3] the target is peptide A19 of the second library (aa 12-20, F19 to alanine) (biotinylated (position not given)). In words: ELISA on biotinylated peptides on streptavidin plates. The procedure:
(§3) Epitope mapping of the monoclonal antibody mACI-01-Ab7 C2 was performed by ELISA using three different peptide libraries. One library comprises a total of 33 biotinylated peptides covering the complete amino acid (aa) sequence of Aβ1-42 (produced by Mimotopes and purchased from ANAWA Trading SA), the second library contains biotinylated peptides using peptide 12 (aa12-20 of Aβ) from the first peptide library and substituting each amino acid in the sequence by an alanine (see […] below), and the third library contains biotinylated peptides 13, 14, or 15 (aa 13-21, 14-22 or 15-23 of Aβ) and substituting in each case the last amino acids to an alanine or to a glycine for aa 21 which is already an alanine (see table 5 below). A biotinylated complete Aβ1-42 peptide was used as positive control (Bachem). Epitope mapping was done according to the manufacturer's (Mimotopes) instructions. Briefly, Streptavidin coated plates (NUNC) were blocked with 0.1% BSA in PBS overnight at 4° C. After washing with PBS-0.05% Tween 20, plates were coated for 1 hour at RT with the different peptides from the library, diluted in 0.1% BSA, 0.1% Sodium Azide in PBS to a final concentration of 10 μM. After washing, plates were incubated for 1 hour at RT with the mACI-01-Ab7 C2 antibody or an isotype control mouse IgG2b antibody, diluted to 10 μg/ml in 2% BSA, 0.1% Sodium Azide in PBS. Plates were washed again and incubated with alkaline phosphatase conjugated goat anti mouse IgG for 1 h at RT.

Test [4] has as its target T12, peptide A17 of the second library (aa 12-20, L17 to alanine) (also: biotinylated, position not given here).
T12 peptide: VHHQKAVFF
The test is described as above. The procedure:
as §3

T11 sequence (P05067 672-713 limits assumed): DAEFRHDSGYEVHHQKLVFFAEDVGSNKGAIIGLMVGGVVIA
T10 sequence (P05067 672-713 limits assumed): as above
T9 sequence (P05067 672-713 limits assumed): as above

B1: humanized anti-human amyloid beta monoclonal antibody hC2 (antibody, human IgG4 S228P, kappa, V domains shown)
VH: EVQLVESGGGLVQPGGSLRLSCAASGFTFSSYGMSWVRQAPGKGLELVASINSNGGSTYYPDSVKGRFTISRDNAKNSLYLQMNSLRAEDTAVYYCASGDYWGQGTTVTVSS
VL: DIVMTQSPLSLPVTPGEPASISCRSSQSLVYSNGDTYLHWYLQKPGQSPQLLIYKVSNRFSGVPDRFSGSGSGTDFTLKISRVEAEDVGVYYCSQSTHVPWTFGQGTKVEIKR
notes: also called humanized antibody C2; humanized C2
Consider B1, for which the binding result with peptide 6, in the test with peptide 11, with peptide 31, in the test with peptide 4, in the test with peptide 29 and with peptide 24 was “no binding (tested: 200 ng/ml (single concentration))” in each case. The binding result with peptide 21 and with peptide 17 was “no binding (tested: 200 ng/ml (single concentration))” throughout.

B2: mouse monoclonal antibody ACI-01-Ab7C2 (antibody, V domains shown)
VH: EVQLVESGGGLVQPGGSLKLSCAASGFTFSSYGMSWVRQTPDKRLELVASINSNGGSTYYPDSVKGRFTISRDNAKNTLYLQMSSLKSEDTAMYYCASGDYWGQGSTLTVSS
VL: DVVMTQTPLSLPVSLGDQASISCRSSQSLVYSNGDTYLHWYLQKPGQSPKLLIYKVSNRFSGVPDRFSGSGSGTDFTLKISRVEAEDLGVYFCSQSTHVPWTFGGGTKLEIK
notes: also called mC2; mACI-01-Ab7 C2
As for B2, the O.D came to 0.333 O.D in test [1], 0.499 O.D in the test with amyloid beta 1-42 fibers and 0.652 O.D in [2]. For the same molecule, the binding result in [3] and in test [4] was “no binding (tested: 10 µg/ml)” throughout.
